± gives the standard deviation.

This data set is described as follows: collision cross section of modified peptide (TIMS, N2, iRT-aligned); higher = larger / more extended gas-phase ion. A digest of the protocol:
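Values are averages of 1–3 technical replicates of the most abundant feature for each charge state. Collision cross section was obtained from the Mason-Schamp equation after 1/K0 calibration with three reference ions and run-wise alignment to the median iRT peptide deviation. Synthetic peptide pools (iRT standard spiked 1:40) were separated on a 120-min nanoflow C18 gradient at 60 °C, analysed on a timsTOF Pro/HT (dda-PASEF, nitrogen, ~2.4 mbar) and identified with MaxQuant.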

Setting [1] is: charge state: 2, modification: Glutarylation.
Where [2] appears, read: charge state: 3, modification: Glutarylation.
[3] abbreviates: charge state: 2, modification: GlyGly (K).
Setting [4] is: charge state: 3, modification: GlyGly (K).
Where [5] appears, read: charge state: 2, modification: Malonyl.
Setting [6] is: charge state: 2, modification: Methyl (K).
[7] abbreviates: charge state: 3, modification: Methyl (K).
Setting [8] is: charge state: 2, modification: Propionyl.
The mark [9] stands for this setting: charge state: 2, modification: Succinyl.
Where [10] appears, read: charge state: 2, modification: Trimethyl (K).
The mark [11] stands for this setting: charge state: 3, modification: Trimethyl (K).
Setting [12] is: charge state: 2, modification: hydroxyisobutyryl.
Setting [13] is: charge state: 3, modification: Citrullination (R).
The mark [14] stands for this setting: charge state: 3, modification: Methyl (R).
The mark [15] stands for this setting: charge state: 2, modification: Acetyl (K).
Where [16] appears, read: charge state: 2, modification: Biotin.
[17] abbreviates: charge state: 2, modification: Butyryl.
The mark [18] stands for this setting: charge state: 2, modification: Crotonyl.
Setting [19] is: charge state: 2, modification: Dimethyl (K).
Where [20] appears, read: charge state: 3, modification: Dimethyl (K).
[21] abbreviates: charge state: 2, modification: Formyl.
Where [22] appears, read: charge state: 3, modification: HexNAc (ST).
Where [23] appears, read: charge state: 3, modification: Butyryl.
[24] abbreviates: charge state: 3, modification: Crotonyl.
The mark [25] stands for this setting: charge state: 3, modification: Acetyl (K).

On to “TLDEILQEKK [_TLDEILQEK(Gluratylation)K_]”, for which the collision cross section by setting is: under setting [1], 387.75 ± 3.2 Å²; under setting [2], 452.89 ± 2.4 Å².
With TLDEILQEKK [_TLDEILQEK(GlyGly (K))K_], the collision cross section under setting [3] came to 390.82 ± 2.5 Å² and the collision cross section under setting [4] stood at 438.72 ± 1.6 Å².
Under setting [5], TLDEILQEKK [_TLDEILQEK(Malonyl)K_] registered a collision cross section of 380.87 ± 4.1 Å².
As to TLDEILQEKK [_TLDEILQEK(Methyl (K))K_], the collision cross section is given as 377.9 ± 1.7 Å² under setting [6] and 432.26 ± 5.2 Å² under setting [7].
For TLDEILQEKK [_TLDEILQEK(Propionyl)K_], the collision cross section under setting [8] is 380.38 Å².
TLDEILQEKK [_TLDEILQEK(Succinyl)K_]: the collision cross section under setting [9] is listed as 382.2 ± 5.9 Å².
As for “TLDEILQEKK [_TLDEILQEK(Trimethyl (K))K_]”, the collision cross section reads like this: under setting [10], 388.3 ± 0.013 Å²; under setting [11], 439.75 ± 2.4 Å².
“TLDEILQEKK [_TLDEILQEK(hydroxyisobutyryl)K_]”: the collision cross section under setting [12] was determined as 386.54 ± 0.81 Å².
On to “TLHLSHLNRFPAR [_TLHLSHLNR(Citrullination (R))FPAR_]”, for which, under setting [13], the collision cross section is recorded as 509.04 ± 32 Å².
For “TLHLSHLNRFPAR [_TLHLSHLNR(Methyl (R))FPAR_]”, the collision cross section under setting [14] came to 503.65 Å².
With “TLQKQSVVYGGK [_TLQK(Acetyl (K))QSVVYGGK_]”, the collision cross section under setting [15] amounted to 392.07 ± 0.61 Å².
Under setting [16], TLQKQSVVYGGK [_TLQK(Biotin)QSVVYGGK_] had a collision cross section of 406.33 Å².
TLQKQSVVYGGK [_TLQK(Butyryl)QSVVYGGK_]: the collision cross section under setting [17] is listed as 396.52 ± 0.85 Å².
As to TLQKQSVVYGGK [_TLQK(Crotonyl)QSVVYGGK_], the collision cross section under setting [18] was 396.64 ± 0.8 Å².
As for “TLQKQSVVYGGK [_TLQK(Dimethyl (K))QSVVYGGK_]”, the collision cross section by setting is: under setting [19], 397.97 ± 0.88 Å²; under setting [20], 459.07 ± 1.6 Å².
Under setting [21], TLQKQSVVYGGK [_TLQK(Formyl)QSVVYGGK_] came in with a collision cross section of 387.94 ± 1 Å².
As to “TLQKQSVVYGGK [_TLQK(Gluratylation)QSVVYGGK_]”, the collision cross section under setting [1] came out at 399.42 ± 0.6 Å².
Turning to “TLQKQSVVYGGK [_TLQK(GlyGly (K))QSVVYGGK_]”, the collision cross section under setting [3] turned out to be 403.57 ± 1.5 Å² and the collision cross section under setting [4] worked out at 459.43 ± 2 Å².
As to TLQKQSVVYGGK [_TLQK(Malonyl)QSVVYGGK_], the collision cross section under setting [5] stood at 395.45 ± 1.1 Å².
“TLQKQSVVYGGK [_TLQK(Methyl (K))QSVVYGGK_]”: the collision cross section is recorded as 395.77 ± 1.4 Å² under setting [6] and 446.7 ± 4.9 Å² under setting [7].
Turning to “TLQKQSVVYGGK [_TLQK(Propionyl)QSVVYGGK_]”, the collision cross section under setting [8] turned out to be 393.92 ± 0.49 Å².
Sequence TLQKQSVVYGGK [_TLQK(Succinyl)QSVVYGGK_] came in with a collision cross section under setting [9] of 397.13 ± 0.77 Å².
For the sequence “TLQKQSVVYGGK [_TLQK(Trimethyl (K))QSVVYGGK_]”, the collision cross section amounted to 405 ± 1.6 Å² under setting [10] and 449.39 ± 2.4 Å² under setting [11].
Take “TLQKQSVVYGGK [_TLQK(hydroxyisobutyryl)QSVVYGGK_]”: under setting [12], the collision cross section is listed as 398.93 ± 0.3 Å².
For the setting “charge state: 2, modification: HexNAc (ST)”, “TLTPASSPVSSPSK [_TLTPASSPVSSPS(HexNAc (ST))K_]” showed a collision cross section of 404.79 Å².
The sequence “TLTPASSPVSSPSKHGDR [_TLTPASSPVSSPS(HexNAc (ST))KHGDR_]” showed a collision cross section under setting [22] of 519.55 ± 0.18 Å².
Still for that read-out and setting: the value for “TPLTHALPGLSEQEGQK [_T(HexNAc (ST))PLTHALPGLSEQEGQK_]” was 513.42 ± 0.96 Å².
In the case of TPNLYIYSKK [_TPNLYIYSK(Acetyl (K))K_], the collision cross section under setting [15] worked out at 385.54 ± 0.92 Å².
Take TPNLYIYSKK [_TPNLYIYSK(Biotin)K_]: the collision cross section under setting [16] is reported as 409.6 Å².
For the sequence TPNLYIYSKK [_TPNLYIYSK(Butyryl)K_], the collision cross section is 388.09 ± 0.85 Å² under setting [17] and 439.93 Å² under setting [23].
TPNLYIYSKK [_TPNLYIYSK(Crotonyl)K_]: the collision cross section by setting is: under setting [18], 385.36 Å²; under setting [24], 432.18 Å².
With TPNLYIYSKK [_TPNLYIYSK(Dimethyl (K))K_], the collision cross section reads like this: under setting [19], 376.02 ± 0.46 Å²; under setting [20], 432.06 ± 2.8 Å².
Consider TPNLYIYSKK [_TPNLYIYSK(Formyl)K_], for which, under setting [21], the collision cross section turned out to be 377.67 ± 0.9 Å².
Turning to “TPNLYIYSKK [_TPNLYIYSK(Gluratylation)K_]”, the collision cross section under setting [1] worked out at 398.57 ± 0.6 Å² and the collision cross section under setting [2] worked out at 451.21 ± 1.7 Å².
Under setting [4], TPNLYIYSKK [_TPNLYIYSK(GlyGly (K))K_] came in with a collision cross section of 446.34 ± 1.1 Å².
Regarding TPNLYIYSKK [_TPNLYIYSK(Malonyl)K_], under setting [5], the collision cross section amounted to 383.2 ± 0.78 Å².
As to TPNLYIYSKK [_TPNLYIYSK(Methyl (K))K_], the collision cross section runs as follows: under setting [6], 377.12 ± 0.28 Å²; under setting [7], 428.93 ± 5.2 Å².
In turn, TPNLYIYSKK [_TPNLYIYSK(Propionyl)K_] returned a collision cross section under setting [8] of 384.03 Å².
For TPNLYIYSKK [_TPNLYIYSK(Succinyl)K_], the collision cross section under setting [9] was found to be 387.96 ± 0.52 Å².
With “TPNLYIYSKK [_TPNLYIYSK(Trimethyl (K))K_]”, the collision cross section reads like this: under setting [10], 381.37 ± 0.61 Å²; under setting [11], 442.31 Å².
In the case of “TPNLYIYSKK [_TPNLYIYSK(hydroxyisobutyryl)K_]”, the collision cross section under setting [12] was 388.68 ± 3 Å².
Regarding “TPSSFRQPFTPTSR [_TPSSFR(Citrullination (R))QPFTPTSR_]”, under setting [13], the collision cross section is 499.72 Å².
As to “TPSSFRQPFTPTSR [_TPSSFR(Methyl (R))QPFTPTSR_]”, the collision cross section under setting [14] is 481.78 ± 1.9 Å².
In turn, “TQAEGQGQGRGLGLVSAVR [_TQAEGQGQGR(Citrullination (R))GLGLVSAVR_]” yielded a collision cross section under setting [13] of 549.33 ± 0.79 Å².
Under setting [14], “TQAEGQGQGRGLGLVSAVR [_TQAEGQGQGR(Methyl (R))GLGLVSAVR_]” gave a collision cross section of 510.91 ± 2 Å².
The sequence “TQAYQDQKPGTSGLR [_TQAYQDQK(Acetyl (K))PGTSGLR_]” showed a collision cross section under setting [15] of 429.11 ± 1.6 Å² and a collision cross section under setting [25] of 480.53 ± 6.7 Å².
“TQAYQDQKPGTSGLR [_TQAYQDQK(Biotin)PGTSGLR_]” had a collision cross section under setting [16] of 446.01 ± 0.23 Å² and a collision cross section (charge state: 3, modification: Biotin) of 500.74 ± 0.34 Å².
As to “TQAYQDQKPGTSGLR [_TQAYQDQK(Butyryl)PGTSGLR_]”, the collision cross section amounted to 427.73 ± 0.77 Å² under setting [17] and 479.17 ± 3.5 Å² under setting [23].
Take “TQAYQDQKPGTSGLR [_TQAYQDQK(Crotonyl)PGTSGLR_]”: the collision cross section reads like this: under setting [18], 430.35 ± 3.2 Å²; under setting [24], 480.34 ± 2.8 Å².
“TQAYQDQKPGTSGLR [_TQAYQDQK(Dimethyl (K))PGTSGLR_]” returned a collision cross section under setting [20] of 464.17 ± 1.6 Å².
In turn, “TQAYQDQKPGTSGLR [_TQAYQDQK(Formyl)PGTSGLR_]” gave a collision cross section under setting [21] of 427.08 ± 0.79 Å².
The sequence “TQAYQDQKPGTSGLR [_TQAYQDQK(Gluratylation)PGTSGLR_]” came in with a collision cross section under setting [1] of 436.36 ± 1.1 Å² and a collision cross section under setting [2] of 483.65 ± 1 Å².
In the case of “TQAYQDQKPGTSGLR [_TQAYQDQK(GlyGly (K))PGTSGLR_]”, the collision cross section reads like this: under setting [3], 432.62 ± 1.4 Å²; under setting [4], 500.32 ± 0.35 Å².
As to “TQAYQDQKPGTSGLR [_TQAYQDQK(Malonyl)PGTSGLR_]”, the collision cross section by setting is: under setting [5], 430.62 ± 0.59 Å²; (charge state: 3, modification: Malonyl) 484.2 Å².
As for “TQAYQDQKPGTSGLR [_TQAYQDQK(Methyl (K))PGTSGLR_]”, the collision cross section by setting is: under setting [6], 422.44 Å²; under setting [7], 472.98 ± 2.7 Å².
Consider “TQAYQDQKPGTSGLR [_TQAYQDQK(Propionyl)PGTSGLR_]”, for which the collision cross section under setting [8] is reported as 428.95 ± 1.4 Å².
Turning to “TQAYQDQKPGTSGLR [_TQAYQDQK(Succinyl)PGTSGLR_]”, the collision cross section under setting [9] amounted to 434.09 ± 1.1 Å² and the collision cross section (charge state: 3, modification: Succinyl) amounted to 483.43 ± 3.9 Å².
The sequence “TQAYQDQKPGTSGLR [_TQAYQDQK(Trimethyl (K))PGTSGLR_]” gave a collision cross section under setting [11] of 476 ± 1.5 Å².
With “TQAYQDQKPGTSGLR [_TQAYQDQK(hydroxyisobutyryl)PGTSGLR_]”, the collision cross section reads like this: under setting [12], 431.22 ± 0.52 Å²; (charge state: 3, modification: hydroxyisobutyryl) 484.99 ± 2.8 Å².
“TQDQISNIKYHEEFEK [_TQDQISNIK(Acetyl (K))YHEEFEK_]”: the collision cross section is given as 481.39 Å² under setting [15] and 555.65 ± 0.58 Å² under setting [25].
Under setting [23], “TQDQISNIKYHEEFEK [_TQDQISNIK(Butyryl)YHEEFEK_]” yielded a collision cross section of 559.77 ± 1.1 Å².
For “TQDQISNIKYHEEFEK [_TQDQISNIK(Crotonyl)YHEEFEK_]”, the collision cross section under setting [24] worked out at 560.13 Å².
For “TQDQISNIKYHEEFEK [_TQDQISNIK(Dimethyl (K))YHEEFEK_]”, the collision cross section under setting [20] amounted to 542.8 ± 0.41 Å².

For the origin of these results see the supplement of paper PMC10598134.
